{"source": "paper doi:10.1101/2024.01.20.576357", "molecular_target": "SpyCatcher-VLP (virus-like particle of SpyCatcher-HBc) (Hepatitis B virus)", "test": "cryo-EM structure"}
{"substance": "SpyCatcher-VLP (virus-like particle of SpyCatcher-HBc)", "values": [{"measurement": "stoichiometry N (monomers per VLP)", "result": 180}]}
